The target in assay [1] is membrane-bound HLA-E (human). Description: cell-based or functional assay.
The target of assay [2] is CD94/NKG2A receptor (human) (UniProt Q13241). Description: cell-based or functional assay.
Assay [3] concerns the target membrane-bound HLA-E (human). Description: flow cytometry on short term cultured melanocytes. On the technique in general: Flow cytometry measures light scatter and fluorescence of single cells or particles in a stream.
Assay [4] addresses membrane-bound HLA-E (human). Description: flow cytometry on a panel of 22 melanoma cell lines.

Chain of UniProt Q13241 (Q13241 other isoform, or with tags, fused parts or gaps, chain 1 of 2): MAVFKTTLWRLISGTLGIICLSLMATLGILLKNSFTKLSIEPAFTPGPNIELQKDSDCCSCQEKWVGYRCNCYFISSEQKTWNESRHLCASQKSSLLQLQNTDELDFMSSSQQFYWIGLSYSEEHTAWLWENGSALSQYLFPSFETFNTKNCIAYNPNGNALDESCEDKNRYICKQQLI
Chain of UniProt Q13241 (chain, as listed by the source, chain 2 of 2): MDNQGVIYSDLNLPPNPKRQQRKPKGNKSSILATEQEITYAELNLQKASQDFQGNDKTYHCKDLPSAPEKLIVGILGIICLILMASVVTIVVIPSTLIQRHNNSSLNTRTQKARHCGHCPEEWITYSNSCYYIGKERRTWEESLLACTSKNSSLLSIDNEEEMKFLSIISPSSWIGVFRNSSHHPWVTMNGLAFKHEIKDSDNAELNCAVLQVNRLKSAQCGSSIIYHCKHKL

With anti-HLA-E mAb MEM-E/06 (antibody), the NK-mediated cytotoxicity, specific lysis (51Cr release) of IFNγ-activated HAEC (% specific lysis) in assay [1] is 34.9.
The substance “membrane-bound HLA-E (from UniProt P61769 21-119) (peptide-MHC)” gave an NK-mediated cytotoxicity, specific lysis (51Cr release) of ECs (% specific lysis) in assay [2] of 2.6.
For anti-HLA-E mAb MEM-E/07 (antibody), the ratio fluorescence intensity (RFI) (ratio (MFI test / MFI negative control)) in assay [3] was in the range of 3 to 7; in assay [4] it was 1 to 4.
